Test results as given in patent US20160326230A1, “HUMAN RELAXIN ANALOGUE, PHARMACEUTICAL COMPOSITION OF SAME, AND PHARMACEUTICAL APPLICATION OF SAME” (SHANGHAI HENGRUI PHARMACEUTICAL CO., LTD., priority 2013, published 2016).

What was measured:
[1] = In vivo half-life measurement in rats (Human relaxin-2 ELISA of blood samples); set-up: species or system Sprague Dawley (SD) rats; settings: SD rats, caudal vein injection, 0.5 mg/kg/rat
Procedure: A total of 12 experimental Sprague Dawley (SD) rats (6 male and 6 female) were used in this test (purchased from SINO-BRITSH SIPPR/BK LAB. ANIMAL LTD., CO, Certificate No.: SCXK (Shanghai) 2008-0016, 160-180 g), and the maintenance environment was SPF grade. SD rats were kept for 3 days in the laboratory environment, at a temperature of 20-25° C., with a humidity of 40-60%. The wild-type human relaxin analog 800828 (WT, prepared in Example 29) with the original sequence was used as a positive control in this test.
Rats were randomly divided into 3 groups, with 4 rats in each group, half males and half females. Control (saline) and human relaxin (analog 800814, WT 800828) were injected into the caudal vein of the rats (4 rats/sample) with a dose of 0.5 mg/kg/rat. Blood samples were taken from the rats' orbital sinuses at 0 h, 0.03 h, 0.08 h, 0.25 h, 0.5 h, 1 h, 1.5 h, 2 h, 4 h, 6 h and 8 h after the injections. Blood samples were centrifuged, and the supernatant was collected and stored at −20° C. for further analysis. After blood collection, the content of relaxin in the blood samples was detected using the Human relaxin-2 Quantikine ELISA Kit (R&D). The T1/2 of the test drug was calculated by T1/2 formula and EXCEL.

ICR mice = test: In vivo biological activity: pubis width in estradiol-primed female ICR mice; settings: s.c. 6 μg/100 μl/mouse, 40 hours later, ratio to solvent control group (=1)
Procedure: ICR mice (female, purchased from SINO-BRITSH SIPPR/BK LAB. ANIMAL LTD., CO, Certificate No.: SCXK (Shanghai) 2008-0016, 18-20 g) were used in this test, and the maintenance environment was SPF grade. After their purchase, ICR mice were kept in the laboratory environment for two weeks in the following conditions: illumination: 12/12-hour light/dark cycle regulation, temperature: 20-25° C.; humidity: 40-60%. The wild-type human relaxin analog 800828 (WT, prepared in Example 29) with the original sequence was used as a positive control in this test.
One week before the experiment, each female ICR mouse was subcutaneously injected with 5 μg/100 μ1/animal of β-estradiol (water-insoluble, slightly soluble in oil), which was mixed with olive oil. Six days later, ICR mice with a body weight less than 22 g were excluded, and the rest of the animals were equally divided into groups according to body weight. The animals were subcutaneously injected with relaxin 800828 (WT) ([…]/100 μl/mouse), 800814 (6 μg/100 μl/mouse) or 0.1% benzopurpurine 4B saline (solvent control group). Relaxin 800828 (WT) and 800814 were dissolved in physiological saline containing 0.1% benzopurpurin 4B. 40 hours later, the pubic bones were removed, skin and muscle were removed from the bone, and the pubis width was measured under microscope. […]

THP-1 cells = test: In vitro bioactivity assay: cAMP production induced in THP-1 cells (cAMP ELISA); assay type: cell-based; settings: 30 min incubation, forskolin + IBMX, average of three experiments, listed as 800828 (WT)
Procedure: The disclosed human relaxin analog (800814) binds to the receptor on THP-1 cells, and induces the production of cAMP in THP-1 cells. To determine the in vitro activity of human relaxin analog (800814), the generation of cAMP was detected. The wild-type human relaxin analog 800828 (WT) (prepared in Example 29) with the original sequence was used in this test as a positive control.
The cells used in the experiments, i.e., THP-1 (ATCC, Product Number: TIB-202™), were cultured in suspension at 37° C., 5% CO2, and used for experiments or passage when the cells were preferably in the logarithmic growth phase. THP-1 cells can be passaged every 2-3 days, with a dilution ratio of 1:3 to 1:4. The medium was RPMI1640, with 0.05 mM b-mercaptoethanol and 10% FBS. On the day of the experiment, THP-1 cells in logarithmic growth phase were collected by centrifugation, and resuspended in DMEM/F12. The cell density was adjusted to 2×10^6 cells/ml, and the cells were seeded in a 96-well plate (50 μl each well) and incubated in a 37° C. incubator for 30 minutes. […] The content of cAMP was detected with a CAMP ELISA KIT (CELL BIOLABS).
Data obtained in the above experiment was fit to a nonlinear curve using Graphpad Prism, and the EC50 value (ng/ml) of CAMP induced in the THP-1 cells by human relaxin analog (800814) was determined.

## CC[C@H](C)[C@@H]1NC(=O)[C@H](C)NC(=O)[C@H]([C@@H](C)CC)NC(=O)[C@H](CCC(N)=O)NC(=O)[C@H](C)NC(=O)[C@H](CCCNC(=N)N)NC(=O)[C@H](C(C)C)NC(=O)[C@H](CC(C)C)NC(=O)[C@H](CC(=O)O)NC(=O)[C@H](CCCNC(=N)N)NC(=O)CNC(=O)[C@@H](NC(=O)[C@H](CC(C)C)NC(=O)[C@H](CCCCN)NC(=O)[C@@H](NC(=O)[C@@H](NC(=O)[C@H](CCC(=O)O)NC(=O)[C@H](CCC(=O)O)NC(=O)[C@H](CCSC)NC(=O)[C@H](Cc2c[nH]c3ccccc23)NC(=O)[C@H](CO)NC(=O)[C@@H](N)CC(=O)O)C(C)C)[C@@H](C)CC)CSSC[C@@H]2NC(=O)[C@@H](NC(=O)[C@H](CCCCN)NC(=O)[C@H](CC(N)=O)NC(=O)[C@H](C)NC(=O)[C@H](CC(C)C)NC(=O)[C@H](C)NC(=O)[C@H](CO)NC(=O)[C@H](Cc3ccc(O)cc3)NC(=O)[C@H](CC(C)C)NC(=O)[C@@H](N)CC(=O)O)CSSC[C@H](NC(=O)CNC(=O)[C@H](C(C)C)NC(=O)[C@H](Cc3c[nH]cn3)NC2=O)C(=O)N[C@@H]([C@@H](C)O)C(=O)N[C@@H](CCCCN)C(=O)N[C@@H](CCCNC(=N)N)C(=O)N[C@@H](CO)C(=O)N[C@@H](CC(C)C)C(=O)N[C@@H](C)C(=O)N[C@@H](CCCNC(=N)N)C(=O)N[C@@H](Cc2ccccc2)C(=O)N[C@H](C(=O)O)CSSC[C@@H](C(=O)NCC(=O)N[C@@H](CCSC)C(=O)N[C@@H](CO)C(=O)N[C@H](C(=O)N[C@@H](Cc2c[nH]c3ccccc23)C(=O)N[C@@H](CO)C(=O)O)[C@@H](C)O)NC1=O [relaxin 800814]
[1]
  T1/2: does not affect its half-life
[1]; both sexes, Sprague Dawley, supernatant of centrifuged blood, iv
  half-life: 52.8 min

## relaxin 800828: wild-type human relaxin with the original sequence, expressed in E. coli, refolded and digested; positive control; precursor SEQ ID NO: 23
[1]
  T1/2: 52.2 min
ICR mice
  relative pubic width: 1.24
THP-1 cells
  EC50 of cAMP induced in THP-1 cells: 3.05 ng/mL
